test: soluble on expression in E. coli; label from the status in PepcDB or PDB records

Sequence	soluble on expression in E. coli
MVNRIQNPILPGFHPDPSIVRVGDDYYIATSTFEWFPGVRIHHSRDLKHWRFVSSPLTRTSQLDMKGNMNSGGIWAPCLSYHDGTFYLIYTDVKQWHGAFKDAHNYLVTAQNIEGPWSDPIYLNSSGFDPSLFHDDDGRKWLVNMIWDYRKGNHPFAGIILQEYSEAEQKLVGPVKNIYKGTDIQLTEGPHLYKKDGYYYLLVAEGGTEYEHAATLARSQSIDGPYETDPSYPLVTSTGQPELALQKAGHGSLVETQNGEWYLAHLCGRPLKGKYCTLGRETAIQKVNWTEDGWLRIEDGGNHPLREVTAPDLPEHPFEKEPELDDFDAPQLHHQWNTLRIPADPSWCSLEERPGHLRLRGMESLTSVHSQSLVARRQQSFHCEVETKLEYQPESFQHMAGLVIYYDTEDHVYLHVTWHEEKGKCLQIIQTKGGNYDELLASPIPLAEEKAVYLKGRIHRETMHLYFKQEGEAEWQPVGPTIDVTHMSDDSAKQVRFTGTFVGMATQDLSGTKKPADFDYFRYKELDQ	soluble
NKDWRINGYVNFSRNENKITELPANMVQENYSPKNGAYAARAEVGRPIGSFYGYRYKGVYQNTDATYARDAEGNVMNDAKGRPIVMKNLTATCQPGDAMYEDINHDGVINQYDIVYLGNANPTLTGGAGLTVKYKQFSINTFFHGRFGQSVVNTARMNNESMHGNANQSTAVLRRWKNEGDITDIPRALYGEGFNYLGSDRFVEDTSFLRLKQLTLNYAFPKSICNKLGITSLTCFVTGYNLFTWSSYTGQDPEVNLPSRPTDLATDGATTPVSRRYTFGFNLSF	not soluble
MISAPGIGSGLDVSGIISKLMEIEQQPLTQLNTKEAKQQAQLSAFGSLKSVLSTFQDSVKALAKPALFNGYKATLADTTAATVSTSSSASAGTHDIEVQSLAQAQKIKSEAFATTDTVIGSGTLTIEFGTYNEDGTFTANAEKTAKTITIDPAKSTLADIRSAINEANAGVTASIVNDGSGNRLVISSKDSGLANALKISVNDTDGNHTDNAGLSKLAFDASTGGVSNMTETVAARNAVMVIDGIPVTKSSNTINDALEGVTFNLLKANPGTTTTLTVEKDKSNVEAAVNAFVKAYNDLEKTIGNLSRYDAANKQASVLTGDSTMRMIQNRMRAMLGGNQSAAGGINSLSELGISFQKDGTLALDNNKLSAVLNNPDKNIAAFFTTQGGDDTTSVEGFASRLSELIDGMTRSDGLISSRMDGINSTIKGIGKQREALEFRLESVEKRLRAQFTALDTMIASMNQTSNYLQQQLANLPKIGE	not soluble
MGSDKIHHHHHHGQNVHPNLPWIDISGQRERQVTIAPGRPDLYNGHPTTVMMDDHKTILCTWSYGHGGKASFIAESKDAGLTWKNGKTPADWQTMSNCPSIYKLTDKQGKERVFVFSAWPDMPMTYSEDGGKSWSPVRSLNKPCVMAFSSIVKLKNGDYLGLYHRGLNDRDRPPLTLWQSVSHDGGLTWSESVKVGEMEGRSPCEPCVFRAPDGKRLVCVARENNRVGNSLMMFSDDEGTTWSPLQKTPWGLTGDRHVIKFTPDGRMIAVFRDMAPNSPTKGHFVAWVGNYKDLLEGTSGQYKIKLLHSYAGSDCGYPGLEILPDGTIVAITYVKMRPGPEQHSIVGVRFKLEETDKMLY	not soluble
MNTIAFKEIFLPIRPSIRAVCHAFLRDDEEAEDATQEVYLRLWEARMRLDGLDNPRAYAIRIARNYCLNLIRKASNSPYPTSLEAAEVQEVSETHGGEADLLLSEQIGRLRQWLRGVSELYRTVFAMSHFRRLSNGEIAERLGLTEGNVRVILCRLRREAKEVMKDDA	not soluble
MDVNTASQSTTDEQMMDILLVLDKEKKTISAVKGVDENGELQTVPPENNSELLKFDRHGDFFSNFFSNMMNQLKNPTRFNFFKIPKIELPKIEPIIRDNFNHPTPENEAGIERYRVTPETVKQEAKKEQQETQAQQPQQPAKEAGAMAQTPQQPDKSKYVIDPDKVDWEALKNFGLSKEQLEKAKALEPMLRGYKSPGAFTIAGNYNSAIMKLDARLSFRHDKDGNVVLAIHGIRQKPELERPFFGHEFSKEDKANLLETGNMGRIVNLKNYITGEMIPSFVSVDKVTNELVSMRASSVQIPDEIKGVKLNKEQKQALREGKGVFLENMISNRKNPFSATVQVNADKKSLEFIYPNAKQSQEQGQKQTQQNSLVTSDGVTIPKSISGIELSRQQQQDLVNDKTIFVAGLKDKRGVEYDAYIQVNHDKKKLGFYSDNPSFDRSAVKEITPASKNRTQVAVNSEGKTNEATKKVKEPLKKGQDKPTEKQKTKQDKKEKQEQTDKPKQSRGRKR	not soluble
APAILLVDDEPHSLAAMKLALEDDFDVLTAQGAEAAIAILEEEWVQVIICDQRMPGRTGVDFLTEVRERWPETVRIIITGYTDSASMMAAINDAGIHQFLTKPWHPEQLLSSARNAARMFTLARENERLSLEMRLLERP	soluble
MNPRQAFFACLHRSPPALLEAALWIAAEHDPQVVPGLLLEEFKQLQQQVGSSLPTLPANELGQPLLRRLNDLGFQQDEHLPLRPQAALMDKVLERRRGQPLALALIALELAQRLQVPLAGVNFPGHFLLRVPGADHLLDPCGGRRLYPNDCRELLQRQYGAHIKLSAEHLASAEPLQMFQRLSRNLRQLHLSYDDHLGALINAERVLEIGNGSAADYLARASLYQRLECPNAERFDLEHALLLSDDPIQRLRLTERLGHLPPNTIVHLEHHHHHH	soluble
MMKKFIAPLLALLVSGCQIDPYTHAPTLTSTDWYDVGMEDAISGSAIKDDDAFSDSQADRGLYLKGYAEGQKKTCQTDFTYARGLSGKSFPASCNNVENASQLHEVWQKGADENASTIRLN	soluble
MSLQENRLKYCIQRMATVFEVSLSGYYDWLKRGMSKRKQHHNRCELLVKSAHMDTQQSYGHERLHQHLTSQGHDISLYMVRQIKQEHGIYCKRHKRSKVTTDSNHNKPVYPNLLEQQFDVAAPNIAWVSDITYIWTNEGWVYLAAFKDLYSKEIVGYALNKRMTADLVCEALNNAIKYKRPARGLIVHSDRGSQYCSHQYRQIIDKYGFAGSMSRKGNCYDNAPIESFWGQLKNELIYHKVYETRDEAIKDVVRYIEIFYNRQRIQKGLGFKSPTQVFQDFYRQAAEGHHHHHH	not soluble
MGSDKIHHHHHHMIDVLVIGGGNAALCAALTAREAGASVTLLEAAPREWRGGNSQHTRNLRCMHDEPQDVLVDAYPEEEFWQDLLKVTGGITDEHLARLVIRHSSSCRDWMRRHGVNFQPPLSGTLHLSRTNAFFMGGGKALVNAYYRSARQLGVEIRYETPVDSLELDDNGNFIAAHTSSGRIEARSCVLACGGFESNREWLREAWGQNERGEWPGENFLIRGTRFNQGVLLKFLMQHGADIIGDPSQGHCVAIDARAPLYDGGICTRIDCVSLGIVVNRDAVRFYDEGEDFWPKRYAIWGRLTALQPGQIAYSIIDAKAIGRFMPPVFPGIQADTLPELARKIGLDEAQFVQTVETYNAACRIGTFDHTVLDDCHTENLQPAKTHWARPIDTGPFYAFAVRPGITFTYLGLKVDETAAVRFNGRPSENLFVAGEMMAGNVLGKGYTAGVGMSIGTAFGRIAGTQAAKAALQRHQTGALHEAA	not soluble
MGSDKIHHHHHHMNFSTTEIQTIFNANEAASAVLNQALEAAAQGTFAVGGMIVDNQTGNVICAMHNNVLKPLFGSSQNFTFDPTAHGERQLVYWYYANRHQLNLPDPEYLTIITTLDPCAMCAGTLLTAGFNVGVIAIDDFAGINYNQTFNFDTLPPDLRPLAKRKFGYYACGIKGVDPDIYVRGYVGGPNVAFKDSVVSVQNLTGCNNVFQANVEAVRNNSSNSGKAPQELFDPAALPDDAPVKLRYRELYADAFRLKIDNPRLPDKNLLDLLLYVKGSNPTAQNAVALLDPFGNVVLCMPDTFENSPVETAFMNVTQAYAITRYQLMNDPFARAQAYDYLTHPKYGTFVFLNAPNPADARTIMTLGAYGSTMEGPVPQIFPSNFQYYFLPQYGTEREFRLDIMNLPPFYTQLAQLSAMQVANY	not soluble
MSLAEPDDDWLHVEGTNIVDKYGNKVWITGANWFGFNCRERMLLDSYHSDIIADIELVADKGINVVRMPIATDLLYAWSQGIYPPSTDTSYNNPALAGLNSYELFNFMLENFKRVGIKVILDVHSPETDNQGHNYPLWYNTTITEEIFKKAWVWVAERYKNDDTIIGFDLKNEPHTNTGTMKIKAQSAIWDDSNHPNNWKRVAEETALAILEVHPNVLIFVEGVEMYPKDGIWDDETFDTSPWTGNNDYYGNWWGGNLRGVKDYPINLGKYQSQLVYSPHDYGPIVYEQDWFKGDFITANDEQAKRILYEQCWRDNWAYIMEEGISPLLLGEWGGMTEGGHPLLDLNLKYLRCMRDFILENKYKLHHTFWCINIDSADTGGLFTRDEGTPFPGGRDLKWNDNKYDNYLYPVLWKTEEGHHHHHH	not soluble
ICMNVENKVTHKPLEFNYTDKYCGNVKNLISCKLYQHALTLIDSFRKDKTI	not soluble
VLTEMRADARVAILEELSEAELNFTLAKLDNLSLIEWAESLPDDIFSLALQLISRDELDLYDDAKQYDDDEVGHWADRKIATLPFNVSVGRAKKLLKTNLFESHQYMHLINRAHKFHGIVQYTDILTADDSVKINTLKLEDCLVLNVHQPLSESIEAIEHSAVPSVAIVDDENTLIGQLDWQFAINTQREIYETRLMAGTGMDEGDDLFSPIIKSSKKRGV	not soluble
MVDLEQEFALGGRCLAFHGPLMYEAKILKIWDPSSKMYTSIPNDKPGGSSQATKEIKPQKLGEDESIPEEIINGKCFFIHYQGWKSSWDEWVGYDRIRAYNEENIAMKKRLANEAKEAKKSLLEHHHHHH	soluble
MKEENVGDFTLHYGVFEEVEPEELRNLADMLRQRTKKDVVFIASRKGDKINFVIGVSKEISDKVNAKEVIREVGKVLKGGGGGRADLAQGGGKAPDKFPEAVKLLKEILSG	soluble
MYHNSSQKRHWTFSSEEQLARLRADANRKFRCKAVANGKVLPNDPVFLEPHEEMTLCKYYEKRLLEFCSVFKPAMPRSVVGTACMYFKRFYLNNSVMEYHPRIIMLTCAFLACKVDEFNVSSPQFVGNLRESPLGQEKALEQILEYELLLIQQLNFHLIVHNPYRPFEGFLIDLKTRYPILENPEILRKTADDFLNRIALTDAYLLYTPSQIALTAILSSASRAGITMESYLSESLMLKENRTCLSQLLDIMKSMRNLVKKYEPPRSEEVAVLKQKLERCHSAELALNVITKKRKGYEDDDYVSKKSKHEEEEWTDDDLVESL	not soluble
SNAMADWVTGKVTKVQNWTDALFSLTVHAPINPFTAGQFTKLGLEIDGERVQRAYSYVNAPDNPNLEFYLVTVPQGKLSPRLAALKPGDEVQVVSDASGFFVLDEVPDCETLWMLATGTAIGPYLSILQYGQDVARFKNLVLVHAARFAADLSYLPLMLELQQRYEGKLRIQTVVSRENVPGSLTGRVPALIENGELEKAVGLPMDKETSHVMLCGNPQMVRDTQQLLKETRQMTKHLRRRPGHMTAEHYW	soluble
GSMQRASRLKRELHMLATEPPPGITCWQDKDQMDDLRAQILGGANTPYEKGVFKLEVIIPERYPFEPPQIRFLTPIYHPNIDSAGRICLDVLKLPPKGAWRPSLNIATVLTSIQLLMSEPNPDDPLMADISSEFKYNKPAFLKNARQWTEKHARQKQKADEEEMLDNLP	soluble

— the DeepSol protein solubility set
